The text below walks through data of US20220275027A1 (TRUSTEES OF PRINCETON UNIVERSITY, published 2022).

Where no end group is shown, it is not given here. A value given as a limit tells only on which side of the number the result lay.

The chains are these.
B1: Cat^N (EFE-Cat^N, cleaved from SUMO-Cat^N) (peptide)
peptide: EFEALSGDTMIEILDDDGIIQKISMEDLYQRLA
modifications: also: 15N,13C isotope-labelled form used in NMR
notes: the range 120-152 (EFEALSG...QRLA) is counted by me from that statement; Isotope-labelled (15N, 13C) in NMR; also called 15N,13C Cat^N
B3: FLAG-Cat^C (cleaved from SUMO-Flag-Cat^C) (other)
chain: DYKDDDDKMFKLNTKNIKVLTPSGFKSFSGIQKVYKPFYHHIIFDDGSEIKCSDNHSFGKDKIKASTIKVGDYLQGKKVLYNEIVEEGIYLYDLLNVGEDNLYYTNGIVSHACESRGK
notes: also called 15N,13C FLAG-Cat^C

In assay [1] the target is B3. The assay is described as follows: NMR: 1H-15N HSQC, heteronuclear NOE, spin-spin relaxation, Cα-Cβ chemical shift perturbation.
Assay [2] addresses T1, Fl-Cat^N (fluorescein labeled Cat^N peptide) (N-terminus capped with 5(6)-carboxyfluorescein).
T1 construct: Made by Fmoc solid phase synthesis; also called FI-Cat^N; Cat^N containing an N-terminal fluorescein
T1 peptide: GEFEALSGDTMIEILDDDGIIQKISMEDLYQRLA
The assay is described as follows: kon1: slope of kobs1 against Cat^C concentration, stopped-flow fluorescence anisotropy, 500 mM NaCl. A general note: In fluorescence polarisation assays a small probe gives low polarisation when free and higher when bound to something large.

Assay [3] has as its target T1, Fl-Cat^N (fluorescein labeled Cat^N …). Nature of the assay: kon2: slope of kobs2 against Cat^C concentration, stopped-flow fluorescence anisotropy, 100 mM NaCl.
For assay [4] the target is unchanged. Nature of the assay: one site binding fit of steady-state fluorescence anisotropy, 500 pM Fl-Cat^N, 500 mM NaCl (fit value below the probe concentration).
Assay [5] shares this target. Nature of the assay: one site binding fit of steady-state fluorescence anisotropy, 500 pM Fl-Cat^N, 100 mM NaCl (fit value below the probe concentration).
The target is the same in assay [6]. Nature of the assay: kon2: slope of kobs2 against Cat^C concentration, stopped-flow fluorescence anisotropy, 500 mM NaCl.
For assay [7] the target is unchanged. The assay is described as follows: kon1: slope of kobs1 against Cat^C concentration, stopped-flow fluorescence anisotropy, 100 mM NaCl.
For assay [8] the target is unchanged. The assay is described as follows: steady-state fluorescence anisotropy, 500 pM Fl-Cat^N, both low (100 mM NaCl) and high (500 mM NaCl) salt.
Assay [9] deals with B1. Nature of the assay: circular dichroism and analytical size exclusion chromatography of Cat^N, Cat^C and the complex.

As for B1, the binding result in assay [1] is “binds”.

B2: SUMO-Flag-Cat^C (other)
chain: MGSSHHHHHHGSGLVPRGSASMSDSEVNQEAKPEVKPEVKPETHINLKVSDGSSEIFFKIKKTTPLRRLMEAFAKRQGKEMDSLRFLYDGIRIQADQTPEDLDMEDNDIIEAHREQIGGDYKDDDDKMFKLNTKNIKVLTPSGFKSFSGIQKVYKPFYHHIIFDDGSEIKCSDNHSFGKDKIKASTIKVGDYLQGKKVLYNEIVEEGIYLYDLLNVGEDNLYYTNGIVSHACESRGK
notes: also called SUMO-Flag-Cats
In general, kon refers to the rate constant with which the complex forms. Read a high kon as fast association. What is called Kd is the concentration at which binding is half-saturated. On to B2, for which the kon in assay [2] turned out to be 2.34e+06 M⁻¹ s⁻¹; in assay [3], 160000 M⁻¹ s⁻¹; in [6], 180000 M⁻¹ s⁻¹; in assay [7] it was 2.8e+06 M⁻¹ s⁻¹. Moreover, the Kd is 0.0804 nM in assay [4], 0.0339 nM in [5] and below 0.5 nM in assay [8].

Take B3: the binding result in assay [9] is “binds”.
